The values below come from article PMC5428262.

The assay deals with GFP-tagged tomosyn1 (GFP-Tomosyn1), wild type (rat) (UniProt Q9WU70). Kind of assay: co-IP; GFP antiserum and protein G agarose, overnight, 300 ug extract of INS 832/13 cells expressing GFP-tomosyn1 constructs; lysis buffer with 1% Triton X-100, 150 mM NaCl, 25 mM N-ethylmaleimide; blot; cells in regular media or treated with 10 mM glucose or 30 mM KCl (15 min) in KRB.
UniProt Q9WU70, sequence (Q9WU70 whole entry): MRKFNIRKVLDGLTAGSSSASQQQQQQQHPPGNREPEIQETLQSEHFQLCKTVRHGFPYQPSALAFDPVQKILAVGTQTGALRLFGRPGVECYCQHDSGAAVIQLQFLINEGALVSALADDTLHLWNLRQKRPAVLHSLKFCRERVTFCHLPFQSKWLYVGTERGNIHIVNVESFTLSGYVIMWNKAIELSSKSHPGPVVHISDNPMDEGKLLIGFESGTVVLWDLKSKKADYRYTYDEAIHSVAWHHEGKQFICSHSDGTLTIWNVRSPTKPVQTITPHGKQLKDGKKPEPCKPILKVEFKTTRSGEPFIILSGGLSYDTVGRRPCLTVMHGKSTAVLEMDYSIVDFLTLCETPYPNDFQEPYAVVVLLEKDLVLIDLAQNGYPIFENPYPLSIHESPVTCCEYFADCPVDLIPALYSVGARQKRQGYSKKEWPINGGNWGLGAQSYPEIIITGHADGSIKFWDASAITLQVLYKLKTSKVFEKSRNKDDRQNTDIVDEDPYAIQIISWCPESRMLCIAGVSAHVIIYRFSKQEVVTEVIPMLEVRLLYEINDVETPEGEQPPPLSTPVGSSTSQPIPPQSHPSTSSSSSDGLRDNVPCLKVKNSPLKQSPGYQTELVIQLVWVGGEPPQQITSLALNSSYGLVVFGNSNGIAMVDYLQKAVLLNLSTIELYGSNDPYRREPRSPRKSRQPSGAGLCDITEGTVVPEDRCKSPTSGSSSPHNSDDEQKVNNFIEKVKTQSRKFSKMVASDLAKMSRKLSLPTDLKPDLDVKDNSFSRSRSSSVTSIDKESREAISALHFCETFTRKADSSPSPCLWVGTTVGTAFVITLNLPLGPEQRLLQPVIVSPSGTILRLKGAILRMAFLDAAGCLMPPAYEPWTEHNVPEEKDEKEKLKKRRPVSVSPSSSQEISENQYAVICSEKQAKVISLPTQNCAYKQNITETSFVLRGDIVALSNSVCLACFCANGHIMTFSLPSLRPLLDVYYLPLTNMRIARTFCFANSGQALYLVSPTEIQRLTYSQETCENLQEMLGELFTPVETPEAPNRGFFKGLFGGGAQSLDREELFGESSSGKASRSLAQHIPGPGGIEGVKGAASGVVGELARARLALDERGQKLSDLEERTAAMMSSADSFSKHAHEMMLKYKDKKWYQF

B1: secretagogin (INS 832/13 cells) (natural protein)
chain: MDNAHRQTQAHLDAACFWQIWQRFDKDEKGYIKETELDAFFDDLLAKFGIEDTLMEENVQKMKEQLMVGHDISKEGRILMKELASMFLSEDENFLLFFRLETPLDNSVEFMQIWRKYDADSSGFISAAELSNFLRDLFLHHKKVISEAELEEYTSTMEKIFDRNKDGRLDLNDLARILALQENFLLQFKMDASSTEERKRDFEKIFAHYDVSKTGALEGPEVDGFVKDMMELVQPSISGVDLDKFREILLRHCDVNKDGKIQKSELALCLGLKINP
With B1, the percent decrease of the interaction after KCl stimulation amounted to 65.3% and the percent decrease of the interaction after glucose stimulation turned out to be 44.6%.
